Measurements: patent US20150344540A1, “NOVEL GLP-1 RECEPTOR AGONISTS WITH CHOLESTEROL EFFLUX ACTIVITY” (NOVO NORDISK A/S, priority 2012, published 2015)
Where no end group is shown, it is not given here. [ ]: non-standard residue; d: D form. Aib = CC(C)(N)C(=O)O

target: human GLP-1 receptor (human, UniProt P43220); assay: cell-based or functional assay

Binder	CRE luciferase EC50, 0% HSA	CRE luciferase EC50, 1% HSA
HAEGTFTHDVSSYYEGEAVKEFIAWLVEK[Aib]KEFL-NH2 (N-terminus assumed; SMILES CC[C@H](C)[C@H](NC(=O)[C@H](Cc1ccccc1)NC(=O)[C@H](CCC(=O)O)NC(=O)[C@H](CCCCN)NC(=O)[C@@H](NC(=O)[C@H](C)NC(=O)[C@H](CCC(=O)O)NC(=O)CNC(=O)[C@H](CCC(=O)O)NC(=O)[C@H](Cc1ccc(O)cc1)NC(=O)[C@H](Cc1ccc(O)cc1)NC(=O)[C@H](CO)NC(=O)[C@H](CO)NC(=O)[C@@H](NC(=O)[C@H](CC(=O)O)NC(=O)[C@H](Cc1c[nH]cn1)NC(=O)[C@@H](NC(=O)[C@H](Cc1ccccc1)NC(=O)[C@@H](NC(=O)CNC(=O)[C@H](CCC(=O)O)NC(=O)[C@H](C)NC(=O)[C@@H](N)Cc1c[nH]cn1)[C@@H](C)O)[C@@H](C)O)C(C)C)C(C)C)C(=O)N[C@@H](C)C(=O)N[C@@H](Cc1c[nH]c2ccccc12)C(=O)N[C@@H](CC(C)C)C(=O)N[C@H](C(=O)N[C@@H](CCC(=O)O)C(=O)N[C@@H](CCCCN)C(=O)NC(C)(C)C(=O)N[C@@H](CCCCN)C(=O)N[C@@H](CCC(=O)O)C(=O)N[C@@H](Cc1ccccc1)C(=O)N[C@@H](CC(C)C)C(N)=O)C(C)C) [[His14,Tyr20,Glu23,Val25,Glu34,Lys35,Aib36,Lys37]-GLP-1-(7-37)-peptidyl-Glu-Phe-Leu amide]	0.338 nM	0.101 nM
HADGTLTSDISSYLEGEAVKEFIAWLVEK[Aib]KEFL-NH2 [[Asp9,Leu12,Ile16,Glu23,Val25,Glu34,Lys35,Aib36,Lys37]-GLP-1-(7-37)-peptidyl-Glu-Phe-Leu amide]	0.222 nM	0.062 nM
H[Aib]EGTFTSDVSSYLEGDAVKDFIAWLVEK[Aib]KEFL-NH2 (N-terminus assumed; SMILES CC[C@H](C)[C@H](NC(=O)[C@H](Cc1ccccc1)NC(=O)[C@H](CC(=O)O)NC(=O)[C@H](CCCCN)NC(=O)[C@@H](NC(=O)[C@H](C)NC(=O)[C@H](CC(=O)O)NC(=O)CNC(=O)[C@H](CCC(=O)O)NC(=O)[C@H](CC(C)C)NC(=O)[C@H](Cc1ccc(O)cc1)NC(=O)[C@H](CO)NC(=O)[C@H](CO)NC(=O)[C@@H](NC(=O)[C@H](CC(=O)O)NC(=O)[C@H](CO)NC(=O)[C@@H](NC(=O)[C@H](Cc1ccccc1)NC(=O)[C@@H](NC(=O)CNC(=O)[C@H](CCC(=O)O)NC(=O)C(C)(C)NC(=O)[C@@H](N)Cc1c[nH]cn1)[C@@H](C)O)[C@@H](C)O)C(C)C)C(C)C)C(=O)N[C@@H](C)C(=O)N[C@@H](Cc1c[nH]c2ccccc12)C(=O)N[C@@H](CC(C)C)C(=O)N[C@H](C(=O)N[C@@H](CCC(=O)O)C(=O)N[C@@H](CCCCN)C(=O)NC(C)(C)C(=O)N[C@@H](CCCCN)C(=O)N[C@@H](CCC(=O)O)C(=O)N[C@@H](Cc1ccccc1)C(=O)N[C@@H](CC(C)C)C(N)=O)C(C)C) [[Aib8,Asp23,Val25,Asp27,Glu34,Lys35,Aib36,Lys37]-GLP-1-(7-37)-peptidyl-Glu-Phe-Leu amide]	4.88 nM	0.776 nM
H[Aib]EGTFTSDVSSYLEGEAVKEFIAHLVEK[Aib]KEFL-NH2 (N-terminus assumed; SMILES CC[C@H](C)[C@H](NC(=O)[C@H](Cc1ccccc1)NC(=O)[C@H](CCC(=O)O)NC(=O)[C@H](CCCCN)NC(=O)[C@@H](NC(=O)[C@H](C)NC(=O)[C@H](CCC(=O)O)NC(=O)CNC(=O)[C@H](CCC(=O)O)NC(=O)[C@H](CC(C)C)NC(=O)[C@H](Cc1ccc(O)cc1)NC(=O)[C@H](CO)NC(=O)[C@H](CO)NC(=O)[C@@H](NC(=O)[C@H](CC(=O)O)NC(=O)[C@H](CO)NC(=O)[C@@H](NC(=O)[C@H](Cc1ccccc1)NC(=O)[C@@H](NC(=O)CNC(=O)[C@H](CCC(=O)O)NC(=O)C(C)(C)NC(=O)[C@@H](N)Cc1c[nH]cn1)[C@@H](C)O)[C@@H](C)O)C(C)C)C(C)C)C(=O)N[C@@H](C)C(=O)N[C@@H](Cc1c[nH]cn1)C(=O)N[C@@H](CC(C)C)C(=O)N[C@H](C(=O)N[C@@H](CCC(=O)O)C(=O)N[C@@H](CCCCN)C(=O)NC(C)(C)C(=O)N[C@@H](CCCCN)C(=O)N[C@@H](CCC(=O)O)C(=O)N[C@@H](Cc1ccccc1)C(=O)N[C@@H](CC(C)C)C(N)=O)C(C)C) [[Aib8,Glu23,Val25,His31,Glu34,Lys35,Aib36,Lys37]-GLP-1-(7-37)-peptidyl-Glu-Phe-Leu amide]	0.066 nM	0.02 nM
HAEGTYTNDVTEYLEGEAVKEFIAWLVEK[Aib]KEFL-NH2 (N-terminus assumed; SMILES CC[C@H](C)[C@H](NC(=O)[C@H](Cc1ccccc1)NC(=O)[C@H](CCC(=O)O)NC(=O)[C@H](CCCCN)NC(=O)[C@@H](NC(=O)[C@H](C)NC(=O)[C@H](CCC(=O)O)NC(=O)CNC(=O)[C@H](CCC(=O)O)NC(=O)[C@H](CC(C)C)NC(=O)[C@H](Cc1ccc(O)cc1)NC(=O)[C@H](CCC(=O)O)NC(=O)[C@@H](NC(=O)[C@@H](NC(=O)[C@H](CC(=O)O)NC(=O)[C@H](CC(N)=O)NC(=O)[C@@H](NC(=O)[C@H](Cc1ccc(O)cc1)NC(=O)[C@@H](NC(=O)CNC(=O)[C@H](CCC(=O)O)NC(=O)[C@H](C)NC(=O)[C@@H](N)Cc1c[nH]cn1)[C@@H](C)O)[C@@H](C)O)C(C)C)[C@@H](C)O)C(C)C)C(=O)N[C@@H](C)C(=O)N[C@@H](Cc1c[nH]c2ccccc12)C(=O)N[C@@H](CC(C)C)C(=O)N[C@H](C(=O)N[C@@H](CCC(=O)O)C(=O)N[C@@H](CCCCN)C(=O)NC(C)(C)C(=O)N[C@@H](CCCCN)C(=O)N[C@@H](CCC(=O)O)C(=O)N[C@@H](Cc1ccccc1)C(=O)N[C@@H](CC(C)C)C(N)=O)C(C)C)	0.202 nM	0.104 nM
HAEGTFTNDMTNYLEGEAVKEFIAWLVEKGKEFL-NH2	0.079 nM	0.028 nM
H[Aib]EGTFTSDLSKQMEGEAVRLFIEWLKNK[Aib]LEFLELL-NH2 (N-terminus assumed; SMILES CC[C@H](C)[C@H](NC(=O)[C@H](Cc1ccccc1)NC(=O)[C@H](CC(C)C)NC(=O)[C@H](CCCNC(=N)N)NC(=O)[C@@H](NC(=O)[C@H](C)NC(=O)[C@H](CCC(=O)O)NC(=O)CNC(=O)[C@H](CCC(=O)O)NC(=O)[C@H](CCSC)NC(=O)[C@H](CCC(N)=O)NC(=O)[C@H](CCCCN)NC(=O)[C@H](CO)NC(=O)[C@H](CC(C)C)NC(=O)[C@H](CC(=O)O)NC(=O)[C@H](CO)NC(=O)[C@@H](NC(=O)[C@H](Cc1ccccc1)NC(=O)[C@@H](NC(=O)CNC(=O)[C@H](CCC(=O)O)NC(=O)C(C)(C)NC(=O)[C@@H](N)Cc1c[nH]cn1)[C@@H](C)O)[C@@H](C)O)C(C)C)C(=O)N[C@@H](CCC(=O)O)C(=O)N[C@@H](Cc1c[nH]c2ccccc12)C(=O)N[C@@H](CC(C)C)C(=O)N[C@@H](CCCCN)C(=O)N[C@@H](CC(N)=O)C(=O)N[C@@H](CCCCN)C(=O)NC(C)(C)C(=O)N[C@@H](CC(C)C)C(=O)N[C@@H](CCC(=O)O)C(=O)N[C@@H](Cc1ccccc1)C(=O)N[C@@H](CC(C)C)C(=O)N[C@@H](CCC(=O)O)C(=O)N[C@@H](CC(C)C)C(=O)N[C@@H](CC(C)C)C(N)=O) [[Aib2,Gly16,Lys29,Aib30,Leu31,Glu32,Phe33,Leu34,Glu35,Leu36,Leu37]-Exendin-4-(1-37)-peptide amide]	1.51 nM	0.552 nM
H[Aib]EGTFTSDVSSYLEGEAVKEFIAWLVEKLKELV-NH2 (N-terminus assumed; SMILES CC[C@H](C)[C@H](NC(=O)[C@H](Cc1ccccc1)NC(=O)[C@H](CCC(=O)O)NC(=O)[C@H](CCCCN)NC(=O)[C@@H](NC(=O)[C@H](C)NC(=O)[C@H](CCC(=O)O)NC(=O)CNC(=O)[C@H](CCC(=O)O)NC(=O)[C@H](CC(C)C)NC(=O)[C@H](Cc1ccc(O)cc1)NC(=O)[C@H](CO)NC(=O)[C@H](CO)NC(=O)[C@@H](NC(=O)[C@H](CC(=O)O)NC(=O)[C@H](CO)NC(=O)[C@@H](NC(=O)[C@H](Cc1ccccc1)NC(=O)[C@@H](NC(=O)CNC(=O)[C@H](CCC(=O)O)NC(=O)C(C)(C)NC(=O)[C@@H](N)Cc1c[nH]cn1)[C@@H](C)O)[C@@H](C)O)C(C)C)C(C)C)C(=O)N[C@@H](C)C(=O)N[C@@H](Cc1c[nH]c2ccccc12)C(=O)N[C@@H](CC(C)C)C(=O)N[C@H](C(=O)N[C@@H](CCC(=O)O)C(=O)N[C@@H](CCCCN)C(=O)N[C@@H](CC(C)C)C(=O)N[C@@H](CCCCN)C(=O)N[C@@H](CCC(=O)O)C(=O)N[C@@H](CC(C)C)C(=O)N[C@H](C(N)=O)C(C)C)C(C)C) [[Aib8,Glu23,Val25,Glu34,Lys35,Leu36,Lys37]-GLP-1-(7-37)-peptidyl-Glu-Leu-Val amide]	0.155 nM	0.082 nM
H[Aib]EGTFTSDVSSYLEGWAVKEFIAWLVEK[Aib]KEFL-NH2 (N-terminus assumed; SMILES CC[C@H](C)[C@H](NC(=O)[C@H](Cc1ccccc1)NC(=O)[C@H](CCC(=O)O)NC(=O)[C@H](CCCCN)NC(=O)[C@@H](NC(=O)[C@H](C)NC(=O)[C@H](Cc1c[nH]c2ccccc12)NC(=O)CNC(=O)[C@H](CCC(=O)O)NC(=O)[C@H](CC(C)C)NC(=O)[C@H](Cc1ccc(O)cc1)NC(=O)[C@H](CO)NC(=O)[C@H](CO)NC(=O)[C@@H](NC(=O)[C@H](CC(=O)O)NC(=O)[C@H](CO)NC(=O)[C@@H](NC(=O)[C@H](Cc1ccccc1)NC(=O)[C@@H](NC(=O)CNC(=O)[C@H](CCC(=O)O)NC(=O)C(C)(C)NC(=O)[C@@H](N)Cc1c[nH]cn1)[C@@H](C)O)[C@@H](C)O)C(C)C)C(C)C)C(=O)N[C@@H](C)C(=O)N[C@@H](Cc1c[nH]c2ccccc12)C(=O)N[C@@H](CC(C)C)C(=O)N[C@H](C(=O)N[C@@H](CCC(=O)O)C(=O)N[C@@H](CCCCN)C(=O)NC(C)(C)C(=O)N[C@@H](CCCCN)C(=O)N[C@@H](CCC(=O)O)C(=O)N[C@@H](Cc1ccccc1)C(=O)N[C@@H](CC(C)C)C(N)=O)C(C)C) [[Aib8,Trp23,Val25,Glu34,Lys35,Aib36,Lys37]-GLP-1-(7-37)-peptidyl-Glu-Phe-Leu amide]	0.763 nM	0.296 nM
